Results: article PMC3789691

System: T1, LexA2 recombinant (Leptospira interrogans serovar Copenhageni), ORF:e6531adf
T1 sequence: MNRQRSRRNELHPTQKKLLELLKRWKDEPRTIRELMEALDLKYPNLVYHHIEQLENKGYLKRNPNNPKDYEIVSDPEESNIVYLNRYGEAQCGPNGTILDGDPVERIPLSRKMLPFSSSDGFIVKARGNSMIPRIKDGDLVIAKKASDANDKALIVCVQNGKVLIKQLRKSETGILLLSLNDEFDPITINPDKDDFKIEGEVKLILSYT
Experiment: EMSA
Settings: Roche DIG Gel Shift Kit binding buffer (composition and pH not given), poly[d(A-T)], 1.55 fmol probe, 20 min on ice; 5% native gel, 0.5x TBE, 4 C

Question: With “GTTCATTTCTTCTGGATCGTTGCCTATTCATACTACTAAGTACATGATTAGGAAAATTAACTTAAAAAGCAAGAAAAAAATCAACTCGCATCTTGACATTTAAACTTTGTACAAGTATAATTACAATTAAAGCAATGGGACATATTCCCAAAGGAGACATGAATGTCTAAGAACATTAAAGTTACCAAAGAATCGAATACAGGGCTCAATAAAGAATTCTACGATCCTTCCAGAGGAAAGTC (double strand) [lexA2up]” as the sequence, how does the binding read?
Answer: binds
